# B1: ER membrane protein complex subunit 2 (Homo sapiens), Q15006 (parent)
# chain: MAKVSELYDVTWEEMRDKMRKWREENSRNSEQIVEVGEELINEYASKLGDDIWIIYEQVMIAALDYGRDDLALFCLQELRRQFPGSHRVKRLTGMRFEAMERYDDAIQLYDRILQEDPTNTAARKRKIAIRKAQGKNVEAIRELNEYLEQFVGDQEAWHELAELYINEHDYAKAAFCLEELMMTNPHNHLYCQQYAEVKYTQGGLENLELSRKYFAQALKLNNRNMRALFGLYMSASHIASNPKASAKTKKDNMKYASWAASQINRAYQFAGRSKKETKYSLKAVEDMLETLQITQS
# partner: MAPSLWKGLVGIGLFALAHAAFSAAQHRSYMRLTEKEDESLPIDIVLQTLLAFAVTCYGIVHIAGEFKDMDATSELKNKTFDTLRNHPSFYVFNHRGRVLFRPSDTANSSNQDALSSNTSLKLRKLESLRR
# Variants of: B1
# Conditions: with emc5_human MMGT1, Q8N4V1
row,Variant,effect of a mutation on the interaction
1,E160A,disrupting interaction strength
2,Y171A,with no effect
3,E180A,with no effect
4,Y200A,disrupting interaction strength
5,R227A,disrupting interaction strength
6,W259A,with no effect

# Source: IntAct's records for PubMed 32439656
